Laboratory results from the supplement of paper PMC12764529.
± gives the half width of the 95% confidence interval.

Key:
[1] = folding stability dG unfold from trypsin proteolysis; higher = more stable
How it was run: (§1)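 Bayesian fitting of sequencing counts gave K50 for each design. Unfolding free energy followed by setting this against a sequence-predicted unfolded-state K50 and a shared folded-state K50, either per protease or with trypsin and chymotrypsin combined. The designs, under 80 residues and lacking cysteine, were digested in a PA-tagged cDNA display format at 11 threefold-diluted protease concentrations and without protease, and only those with AlphaFold2 dimer inter-PAE above 15 were kept.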

[2] = folding stability dG unfold from chymotrypsin proteolysis; higher = more stable
How it was run: as §1

[3] = folding stability dG unfold (combined trypsin and chymotrypsin); higher = more stable
How it was run: as §1

Sequence	folding stability dG unfold [1] [kcal/mol]	folding stability dG unfold [2] [kcal/mol]	folding stability dG unfold [3] [kcal/mol]
SAGGSAGGSAGGSNIPSDSTVTSKGSSDTTTSTYYNPETGTTLVTTTPPDGVPTTTTTASAGGSAGGSAGGS [r10_592_JUSTAS]	0.621 ± 0.059	-0.398 ± 0.36	0.159 ± 0.12
SAGGSAGGSAGGSPEFKIVSVEYDPETGLVTLEIEREDGSTLRFVFDKDGKLVRVEELPSAGGSAGGSAGGS [r4_259_TrROS_Hall]	3.31 ± 0.22	4.56 ± 0.15	4.44 ± 0.19
SAGGSAGGSAGGSPKRVTMYFIIPFYILIPKEDADGNNEWVIIPITIIIKIEIELPPGDSAGGSAGGSAGGS [r4_326_TrROS]	4.5 ± 0.15	5.49 ± 0.14	5.48 ± 0.19
SAGGSAGGSAGGSPKTILLEVNGRLVLVTVKDGKVEIRDLENPNKTYTFPPGAKILIVDSAGGSAGGSAGGS [r4_321_TrROS_Hall]	1.61 ± 0.021	1.91 ± 0.035	1.84 ± 0.06
SAGGSAGGSAGGSPLLDFPEPVTTLEETTVTVYFDTNDFTVTLNVTTEVTGDVKRPTVVGSAGGSAGGSAGG [r7_735_JUSTAS]	1.1 ± 0.044	0.464 ± 0.051	0.788 ± 0.11
SAGGSAGGSAGGSPNWKWVEMEITFNVPPGAKITIPNGIKLTVPPGDPVTIKIYIAVPPSAGGSAGGSAGGS [r4_232_TrROS]	1.94 ± 0.12	2.96 ± 0.048	2.47 ± 0.31
SAGGSAGGSAGGSPNYRLEIRVDIKVSYRYDLFTGEPIEPEVEIEVEIRLIPEGAIVDESAGGSAGGSAGGS [r4_175_TrMRF]	3.87 ± 0.14	4.54 ± 0.28	4.57 ± 0.28
SAGGSAGGSAGGSPPGQEILIQIKIEFTFPIKKQTDGKPQWHPITISFTAAIPIKVDPNSAGGSAGGSAGGS [r4_271_TrROS]	3.22 ± 0.13	3.59 ± 0.092	3.52 ± 0.14
SAGGSAGGSAGGSPVIIPDKGYLVVELEEEGLLVVYPLYPDGEIGPAFVRPVHPDVPVLSAGGSAGGSAGGS [r4_409_TrMRF]	2.61 ± 0.062	0.982 ± 0.039	1.92 ± 0.072
SAGGSAGGSAGGSPVRVKLKFKKKFTVLLPLTDEDDEILDVEKEYTVEITLEVTLPPDLSAGGSAGGSAGGS [r4_326_TrMRF]	3.26 ± 0.15	4.34 ± 0.2	4.01 ± 0.48
SAGGSAGGSAGGSRMRLEITVRDENGLLVRLEVEFEEKDGELEMKVRAEVFPLPEEEEESAGGSAGGSAGGS [r4_168_TrROS_Hall]	0.939 ± 0.04	2.71 ± 0.059	2.44 ± 0.1
SAGGSAGGSAGGSSFTIKVELKDENGNKYTITVTGTGSAETVKKELEKKYPNKIVKITGSAGGSAGGSAGGS [r4_412_TrMRF]	1.93 ± 0.089	2.897 ± 0.025	2.69 ± 0.046
SAGGSAGGSAGGSSKVIEVNGYKITVTDNSVEIYNKKTGKKITVNADNPEVQELLKKLLSAGGSAGGSAGGS [r4_353_TrROS_Hall]	3.6 ± 0.089	4.254 ± 0.037	4.07 ± 0.094
SAGGSAGGSAGGSSSSLTPIGSSEKLEKLPDSSLRLVTTTTYRDPVTGETSTTTTVTLTDSAGGSAGGSAGG [r7_546_JUSTAS]	-0.46 ± 0.091	0.861 ± 0.045	0.487 ± 0.052
SAGGSAGGSAGGSSSSSITTEERPVDEDSVEKTFKFPDYYVVETLDPRTGRTSVSFIPVSAGGSAGGSAGGS [r4_99_JUSTAS]	0.756 ± 0.021	0.249 ± 0.041	0.533 ± 0.072
SAGGSAGGSAGGSSSVSVDTDPETGLITVTTYSSSGGVTVTLYEKPPDGSLTPVSTTAVSAGGSAGGSAGGS [r4_106_JUSTAS]	1.08 ± 0.045	0.844 ± 0.07	1.01 ± 0.046
SAGGSAGGSAGGSTKTYNAEIDNPNGPKITIPIEYRNEDGESDFEEKAKKFAEEYAKKYSAGGSAGGSAGGS [r4_168_TrMRF]	-0.886 ± 0.46	0.906 ± 0.16	0.547 ± 0.14
